Data reported in US20150344570A1 (published 2015).

B1: GpH7-A5/GpH7-B3 variant E269_05P/GpL16-k0 (antibody, human IgG1, kappa)
heavy 1: not shown
heavy 2: not shown
light: DIVMTQSPLSLPVTPGEPASISCQASESLVHSNRNTYLHWYLQKPGQSPQLLIYKVSNRFSGVPDRFSGSGSGTDFTLKISRVEAEDVGVYYCSQNTHVPPTFGQGTKVEIERTVAAPSVFIFPPSDEQLKSGTASVVCLLNNFYPREAKVQWKVDNALQSGNSQESVTEQDSKDSTYSLSSTLTLSKADYEKHKVYACEVTHQGLSSPVTKSFNRGEC
notes: also called He Ab E269_05P
B2: GpH7-A5/GpH7-B3 variant I336_06M/GpL16-k0 (antibody, human IgG1, kappa)
heavy 1: not shown
heavy 2: not shown
light: B1 light
notes: also called He Ab I336_06M
B3: GpH7-A5/GpH7-B3 variant G236_02A/GpL16-k0 (antibody, human IgG1, kappa)
heavy 1: not shown
heavy 2: not shown
light: B1 light
notes: also called He Ab G236_02A
B4: GpH7-A5/GpH7-B3 variant E333_14T/GpL16-k0 (antibody, human IgG1, kappa)
heavy 1: not shown
heavy 2: not shown
light: B1 light
notes: also called He Ab E333_14T
B5: GpH7-A5/GpH7-B3 variant E333_07I/GpL16-k0 (antibody, human IgG1, kappa)
heavy 1: not shown
heavy 2: not shown
light: B1 light
notes: also called He Ab E333_07I
B6: GpH7-A5/GpH7-B3 variant E269_20W/GpL16-k0 (antibody, human IgG1, kappa)
heavy 1: not shown
heavy 2: not shown
light: B1 light
notes: also called He Ab E269_20W
B7: GpH7-A5/GpH7-B3 variant E269_08L/GpL16-k0 (antibody, human IgG1, kappa)
heavy 1: not shown
heavy 2: not shown
light: B1 light
notes: also called He Ab E269_08L
B8: GpH7-A5/GpH7-B3 variant I332_12R/GpL16-k0 (antibody, human IgG1, kappa)
heavy 1: not shown
heavy 2: not shown
light: B1 light
notes: also called He Ab I332_12R
B9: GpH7-A5/GpH7-B3 variant H268_08L/GpL16-k0 (antibody, human IgG1, kappa)
heavy 1: not shown
heavy 2: not shown
light: B1 light
notes: also called He Ab H268_08L
B10: GpH7-A5/GpH7-B3 variant E269_06M/GpL16-k0 (antibody, human IgG1, kappa)
heavy 1: not shown
heavy 2: not shown
light: B1 light
notes: also called He Ab E269_06M
B11: GpH7-A5/GpH7-B3 variant E333_06M/GpL16-k0 (antibody, human IgG1, kappa)
heavy 1: not shown
heavy 2: not shown
light: B1 light
notes: also called He Ab E333_06M
B12: GpH7-A5/GpH7-B3 variant I336_01G/GpL16-k0 (antibody, human IgG1, kappa)
heavy 1: not shown
heavy 2: not shown
light: B1 light
notes: also called He Ab I336_01G
B13: GpH7-A5/GpH7-B3 variant E269_16H/GpL16-k0 (antibody, human IgG1, kappa)
heavy 1: not shown
heavy 2: not shown
light: B1 light
notes: also called He Ab E269_16H
B14: GpH7-A5/GpH7-B3 variant G236_20W/GpL16-k0 (antibody, human IgG1, kappa)
heavy 1: not shown
heavy 2: not shown
light: B1 light
notes: also called He Ab G236_20W
B15: GpH7-A5/GpH7-B3 variant E333_02A/GpL16-k0 (antibody, human IgG1, kappa)
heavy 1: not shown
heavy 2: not shown
light: B1 light
notes: also called He Ab E333_02A
B16: GpH7-A5/GpH7-B3 variant I336_10E/GpL16-k0 (antibody, human IgG1, kappa)
heavy 1: not shown
heavy 2: not shown
light: B1 light
notes: also called He Ab I336_10E
B17: GpH7-A5/GpH7-B3 variant H268_02A/GpL16-k0 (antibody, human IgG1, kappa)
heavy 1: not shown
heavy 2: not shown
light: B1 light
notes: also called He Ab H268_02A
B18: GpH7-A5/GpH7-B3 variant E333_03V/GpL16-k0 (antibody, human IgG1, kappa)
heavy 1: not shown
heavy 2: not shown
light: B1 light
notes: also called He Ab E333_03V
B19: GpH7-A5/GpH7-B3 variant H268_14T/GpL16-k0 (antibody, human IgG1, kappa)
heavy 1: not shown
heavy 2: not shown
light: B1 light
notes: also called He Ab H268_14T
B20: GpH7-A5/GpH7-B3 variant I336_04F/GpL16-k0 (antibody, human IgG1, kappa)
heavy 1: not shown
heavy 2: not shown
light: B1 light
notes: also called He Ab I336_04F
B21: GpH7-A5/GpH7-B3 variant I336_03V/GpL16-k0 (antibody, human IgG1, kappa)
heavy 1: not shown
heavy 2: not shown
light: B1 light
notes: also called He Ab I336_03V
B22: GpH7-A5/GpH7-B3 variant E333_09D/GpL16-k0 (antibody, human IgG1, kappa)
heavy 1: not shown
heavy 2: not shown
light: B1 light
notes: also called He Ab E333_09D
B23: GpH7-A5/GpH7-B3 variant E269_18N/GpL16-k0 (antibody, human IgG1, kappa)
heavy 1: not shown
heavy 2: not shown
light: B1 light
notes: also called He Ab E269_18N
B24: GpH7-A5/GpH7-B3 variant E333_16H/GpL16-k0 (antibody, human IgG1, kappa)
heavy 1: not shown
heavy 2: not shown
light: B1 light
notes: also called He Ab E333_16H
B25: GpH7-A5/GpH7-B3 variant E333_12R/GpL16-k0 (antibody, human IgG1, kappa)
heavy 1: not shown
heavy 2: not shown
light: B1 light
notes: also called He Ab E333_12R
B26: GpH7-A5/GpH7-B3 variant H268_05P/GpL16-k0 (antibody, human IgG1, kappa)
heavy 1: not shown
heavy 2: not shown
light: B1 light
notes: also called He Ab H268_05P
B27: GpH7-A5/GpH7-B3 variant E333_08L/GpL16-k0 (antibody, human IgG1, kappa)
heavy 1: not shown
heavy 2: not shown
light: B1 light
notes: also called He Ab E333_08L
B28: GpH7-A5/GpH7-B3 variant E333_15Y/GpL16-k0 (antibody, human IgG1, kappa)
heavy 1: not shown
heavy 2: not shown
light: B1 light
notes: also called He Ab E333_15Y
B29: GpH7-A5/GpH7-B3 variant I336_02A/GpL16-k0 (antibody, human IgG1, kappa)
heavy 1: not shown
heavy 2: not shown
light: B1 light
notes: also called He Ab I336_02A
B30: GpH7-A5/GpH7-B3 variant E269_13S/GpL16-k0 (antibody, human IgG1, kappa)
heavy 1: not shown
heavy 2: not shown
light: B1 light
notes: also called He Ab E269_13S
B31: GpH7-A5/GpH7-B3 variant H268_07I/GpL16-k0 (antibody, human IgG1, kappa)
heavy 1: not shown
heavy 2: not shown
light: B1 light
notes: also called He Ab H268_07I
B32: GpH7-A5/GpH7-B3 variant H268_12R/GpL16-k0 (antibody, human IgG1, kappa)
heavy 1: not shown
heavy 2: not shown
light: B1 light
notes: also called He Ab H268_12R
B33: GpH7-A5/GpH7-B3 variant E269_19Q/GpL16-k0 (antibody, human IgG1, kappa)
heavy 1: not shown
heavy 2: not shown
light: B1 light
notes: also called He Ab E269_19Q
B34: GpH7-A5/GpH7-B3 variant I336_18N/GpL16-k0 (antibody, human IgG1, kappa)
heavy 1: not shown
heavy 2: not shown
light: B1 light
notes: also called He Ab I336_18N
B35: GpH7-A5/GpH7-B3 variant E333_13S/GpL16-k0 (antibody, human IgG1, kappa)
heavy 1: not shown
heavy 2: not shown
light: B1 light
notes: also called He Ab E333_13S
B36: GpH7-A5/GpH7-B3 variant E333_04F/GpL16-k0 (antibody, human IgG1, kappa)
heavy 1: not shown
heavy 2: not shown
light: B1 light
notes: also called He Ab E333_04F
B37: GpH7-A5/GpH7-B3 variant E333_05P/GpL16-k0 (antibody, human IgG1, kappa)
heavy 1: not shown
heavy 2: not shown
light: B1 light
notes: also called He Ab E333_05P
B38: GpH7-A5/GpH7-B3 variant E269_14T/GpL16-k0 (antibody, human IgG1, kappa)
heavy 1: not shown
heavy 2: not shown
light: B1 light
notes: also called He Ab E269_14T
B39: GpH7-A5/GpH7-B3 variant E333_11K/GpL16-k0 (antibody, human IgG1, kappa)
heavy 1: not shown
heavy 2: not shown
light: B1 light
notes: also called He Ab E333_11K
B40: GpH7-A5/GpH7-B3 variant H268_20W/GpL16-k0 (antibody, human IgG1, kappa)
heavy 1: not shown
heavy 2: not shown
light: B1 light
notes: also called He Ab H268_20W
B41: GpH7-A5/GpH7-B3 variant E269_15Y/GpL16-k0 (antibody, human IgG1, kappa)
heavy 1: not shown
heavy 2: not shown
light: B1 light
notes: also called He Ab E269_15Y
B42: GpH7-A5/GpH7-B3 variant E269_09D/GpL16-k0 (antibody, human IgG1, kappa)
heavy 1: not shown
heavy 2: not shown
light: B1 light
notes: also called He Ab E269_09D
B43: GpH7-A5/GpH7-B3 variant E333_01G/GpL16-k0 (antibody, human IgG1, kappa)
heavy 1: not shown
heavy 2: not shown
light: B1 light
notes: also called He Ab E333_01G
B44: GpH7-A5/GpH7-B3 variant E269_07I/GpL16-k0 (antibody, human IgG1, kappa)
heavy 1: not shown
heavy 2: not shown
light: B1 light
notes: also called He Ab E269_07I

Molecular target: T1, FcγRIa (human, UniProt P12314 16-292)
T1 construct: extracellular domain; also called FcgRI; 1a
Assay: SPR (Biacore); He Ab relative to HeCon Ab = 100
Procedure: Analysis of interaction between objective antibody and the FcγR was carried out using Biacore T100 (GE Healthcare). HBS-EP+ (GE Healthcare) was used as the running buffer, and the measurement temperature was set to 25° C. Chips produced by immobilizing the antigen peptide by the amine coupling method to a Series S Sencor Chip CM5 (GE Healthcare), or alternatively, chips produced by allowing preliminarily biotinylated antigen peptides to interact with and immobilize onto a Series S Sensor Chip SA (certified) (GE Healthcare) were used. Antibodies of interest were captured onto an antigen peptide-immobilized chip, and allowed to interact to each FcγR diluted with running buffer. To regenerate and repeatedly use the chip, the antibodies captured on the chip were washed off by reacting 10 mM glycine-HCl, pH 1.5.

T1 sequence (P12314 16-292): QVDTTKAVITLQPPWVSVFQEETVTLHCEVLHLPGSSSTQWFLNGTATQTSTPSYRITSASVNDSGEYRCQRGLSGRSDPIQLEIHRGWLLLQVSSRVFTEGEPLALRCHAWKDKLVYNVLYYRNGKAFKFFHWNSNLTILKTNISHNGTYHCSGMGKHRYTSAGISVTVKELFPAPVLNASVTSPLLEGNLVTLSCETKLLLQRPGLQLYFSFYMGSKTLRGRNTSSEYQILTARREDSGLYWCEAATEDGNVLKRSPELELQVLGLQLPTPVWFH

Binder | He/Con_1a
B1 | 102 % of control
B2 | 108 % of control
B3 | 100 % of control
B4 | 102 % of control
B5 | 102 % of control
B6 | 105 % of control
B7 | 104 % of control
B8 | 100 % of control
B9 | 107 % of control
B10 | 104 % of control
B11 | 102 % of control
B12 | 109 % of control
B13 | 106 % of control
B14 | 105 % of control
B15 | 103 % of control
B16 | 108 % of control
B17 | 109 % of control
B18 | 105 % of control
B19 | 112 % of control
B20 | 106 % of control
B21 | 105 % of control
B22 | 104 % of control

Binder | He/Con_1a
B23 | 102 % of control
B24 | 101 % of control
B25 | 102 % of control
B26 | 109 % of control
B27 | 102 % of control
B28 | 101 % of control
B29 | 106 % of control
B30 | 103 % of control
B31 | 108 % of control
B32 | 106 % of control
B33 | 105 % of control
B34 | 108 % of control
B35 | 103 % of control
B36 | 102 % of control
B37 | 102 % of control
B38 | 106 % of control
B39 | 102 % of control
B40 | 107 % of control
B41 | 106 % of control
B42 | 107 % of control
B43 | 103 % of control
B44 | 103 % of control
